Data taken from patent publication US20260070987A1.

Assays:
[1] = biological target: equine FcRn (large alpha subunit p51) / equine beta-2-microglobulin complex, biotinylated (equine) (UniProt P30441); experiment: SPR (Biacore), pH 6
[2] = biological target: equine FcRn (large alpha subunit p51) / equine beta-2-microglobulin complex, biotinylated (equine) (UniProt P30441); experiment: SPR (Biacore), pH 7.4
[3] = biological target: equine FcRn (large alpha subunit p51) in complex with equine beta-2-microglobulin (equine) (UniProt F6XZ61); experiment: SPR (Biacore), pH 6
Sequence of UniProt F6XZ61 (F6XZ61 entry or part of it, one chain of several): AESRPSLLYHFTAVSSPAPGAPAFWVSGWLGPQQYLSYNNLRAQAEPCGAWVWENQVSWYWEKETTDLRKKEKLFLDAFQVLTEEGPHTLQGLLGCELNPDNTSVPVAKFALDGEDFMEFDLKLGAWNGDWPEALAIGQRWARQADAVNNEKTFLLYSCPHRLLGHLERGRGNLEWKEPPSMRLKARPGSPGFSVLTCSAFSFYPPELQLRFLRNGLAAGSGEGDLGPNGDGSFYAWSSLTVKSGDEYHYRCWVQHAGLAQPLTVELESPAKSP

Sequence of UniProt P30441 (P30441 21-118, one chain of several): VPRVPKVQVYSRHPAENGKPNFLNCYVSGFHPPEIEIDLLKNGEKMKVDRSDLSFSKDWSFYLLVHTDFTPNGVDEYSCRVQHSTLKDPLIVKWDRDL

B1: equine IgG1 N434W (antibody, part only; not given: Variable domains, not shown: another chain or arm of the molecule)
constant: ASTTAPKVFALAPGCGTTSDSTVALGCLVSGYFPEPVKVSWNSGSLTSGVHTFPSVLQSSGFYSLSSMVTVPASTWTSETYICNVVHAASNFKVDKRIEPIPDNHQKVCDMSKCPKCPAPELLGGPSVFIFPPNPKDTLMITRTPEVTCVVVDVSQENPDVKFNWYMDGVEVRTATTRPKEEQFNSTYRVVSVLRIQHQDWLSGKEFKCKVNNQALPQPIERTITKTKGRSQEPQVYVLAPHPDELSKSKVSVTCLVKDFYPPEINIEWQSNGQPELETKYSTTQAQQDSDGSYFLYSKLSVDRNRWQQGTTFTCGVMHEALHWHYTQKNVSKNPGK
B1 gave a Kd [1] of 1.86 nM and a Kd [2] of 7310 nM.

B2: equine IgG1 N434F (antibody, part only; not given: variable domains, not shown: another chain or arm of the molecule)
constant: ASTTAPKVFALAPGCGTTSDSTVALGCLVSGYFPEPVKVSWNSGSLTSGVHTFPSVLQSSGFYSLSSMVTVPASTWTSETYICNVVHAASNFKVDKRIEPIPDNHQKVCDMSKCPKCPAPELLGGPSVFIFPPNPKDTLMITRTPEVTCVVVDVSQENPDVKFNWYMDGVEVRTATTRPKEEQFNSTYRVVSVLRIQHQDWLSGKEFKCKVNNQALPQPIERTITKTKGRSQEPQVYVLAPHPDELSKSKVSVTCLVKDFYPPEINIEWQSNGQPELETKYSTTQAQQDSDGSYFLYSKLSVDRNRWQQGTTFTCGVMHEALHFHYTQKNVSKNPGK
B2 showed a Kd [1] of 2.83 nM and a Kd [2] of 14600 nM.

B3: equine IgG7 T286V mutant (antibody, part only; not given: Variable domains, not shown: another chain or arm of the molecule)
constant: ASTTAPKVFPLASHSAATSGSTVALGCLVSSYFPEPVTVSWNSGALTSGVHTFPSVLQSSGLYSLSSMVTVPASSLKSQTYICNVAHPASSTKVDKKIVIKECGGCPTCPECLSVGPSVFIFPPKPKDVLMISRTPTVTCVVVDVGHDFPDVQFNWYVDGVETHVATTEPKQEQNNSTYRVVSILAIQHKDWLSGKEFKCKVNNQALPAPVQKTISKPTGQPREPQVYVLAPHRDELSKNKVSVTCLVKDFYPTDIDIEWKSNGQPEPETKYSTTPAQLDSDGSYFLYSKLTVETNRWQQGTTFTCAVMHEALHNHYTEKSVSKSPGK
For B3, the Kd [3] was 2.3 nM.

B4: equine IgG7 T286Y mutant (antibody, part only; not given: Variable domains, not shown: another chain or arm of the molecule)
constant: ASTTAPKVFPLASHSAATSGSTVALGCLVSSYFPEPVTVSWNSGALTSGVHTFPSVLQSSGLYSLSSMVTVPASSLKSQTYICNVAHPASSTKVDKKIVIKECGGCPTCPECLSVGPSVFIFPPKPKDVLMISRTPTVTCVVVDVGHDFPDVQFNWYVDGVETHYATTEPKQEQNNSTYRVVSILAIQHKDWLSGKEFKCKVNNQALPAPVQKTISKPTGQPREPQVYVLAPHRDELSKNKVSVTCLVKDFYPTDIDIEWKSNGQPEPETKYSTTPAQLDSDGSYFLYSKLTVETNRWQQGTTFTCAVMHEALHNHYTEKSVSKSPGK
B4 gave a Kd [3] of 14.9 nM.

B5: equine IgG7 T286W mutant (antibody, part only; not given: variable domains, not shown: another chain or arm of the molecule)
constant: ASTTAPKVFPLASHSAATSGSTVALGCLVSSYFPEPVTVSWNSGALTSGVHTFPSVLQSSGLYSLSSMVTVPASSLKSQTYICNVAHPASSTKVDKKIVIKECGGCPTCPECLSVGPSVFIFPPKPKDVLMISRTPTVTCVVVDVGHDFPDVQFNWYVDGVETHWATTEPKQEQNNSTYRVVSILAIQHKDWLSGKEFKCKVNNQALPAPVQKTISKPTGQPREPQVYVLAPHRDELSKNKVSVTCLVKDFYPTDIDIEWKSNGQPEPETKYSTTPAQLDSDGSYFLYSKLTVETNRWQQGTTFTCAVMHEALHNHYTEKSVSKSPGK
B5 gave a Kd [3] of 15.4 nM.
